Measurements as given in patent US20150344571A1 (KANGWON NATIONAL UNIVERSITY UNIVERSITY INDUSTRY COOPERATION …, published 2015).

Key:
[1] = molecular target: T1, mouse L1CAM (purified extracellular domain with S1 tag) (mouse, UniProt P11627 20-1123); assay: not stated there (summary of the filing's affinity measurements)
T1 construct: extracellular domain; also called mouse L1CAM monomer; not shown: S1 tag from the pJEX2T vector

[2] = molecular target: T1, mouse L1CAM (purified extracellular …); assay: competitive ELISA with mouse L1CAM
[3] = molecular target: T1, mouse L1CAM (purified extracellular …); assay: Octet RED, antibody on AHC sensor, soluble mouse L1CAM
Experimental: (§1) Affinities of Ab417, Ab417-H6L2 mutant, and Ab417-H6L6 mutant for human and mouse L1CAM were examined using Octet RED (fortebio). […] Each 200 it thereof was added to opaque 96-well plate to prevent light transmission. AHC (anti-human IgG Fc capture) sensor chip was used to analyze binding kinetics of the antibodies to antigens by examining changes in refractive index which occurs upon association and dissociation of antibody and antigen while transferring the sensor chip to PBS solution, antibody, PBS solution, antigen, and PBS solution in this order.
(§2) Despite amino acid substitution, there were no changes in the affinities of these antibodies (Table 4), and there were also no changes in the affinities of these antibodies for mouse L1CAM (Table 5).

[4] = molecular target: T2, human L1CAM (purified extracellular domain) (human, UniProt P32004 20-1112); assay: Octet RED (called SPR in the filing), antibody on AHC sensor, soluble human L1CAM
T2 construct: range 1-1112; Expressed in HEK293T from pJK-dhfr2-L1-monomer; The stated range 1-1112 begins at residue 1 of the precursor; no signal peptide limits are stated; also called human L1CAM antigen
Experimental: (§3) In addition to the competitive ELISA, SPR (surface […] resonance) was measured using Octet RED (ForteBio, USA) according to the manufacturer's protocol to determine the affinities of Ab417 antibody and Ab4M antibody for human and mouse L1CAM. […] AHC (anti-human IgG Fc capture) sensor chip was used to analyze binding kinetics of the antibodies to antigens by examining changes in refractive index which occurs upon association and dissociation of antibody and antigen while transferring the sensor chip to PBS solution, antibody, PBS solution, antigen, and PBS solution in this order.

[5] = molecular target: T2, human L1CAM (purified extracellular …); assay: competitive ELISA
Experimental: (§4) The affinities of the purified antibodies for human L1CAM were measured by competitive ELISA. Human L1CAM was prepared at a density of 1×10⁻⁶ M and serially diluted to 1×10⁻¹¹ M using a PBS buffer solution. Respective antibodies were prepared by diluting them in PBS buffer solution at particular concentrations according to their binding capacity. The antigens and antibodies thus diluted were reacted with each other at the same volume ratio, and allowed to react at room temperature for 2 hours.
(§5) 96-well plates (MaxiSorp, Nunc) were coated using the purified human L1CAM which were diluted in a buffer solution (15 mM Na₂CO₃, 34.84 mM NaHCO₃, pH 9.6) at a concentration of 100 ng/well, at 4° C. overnight. Next day, the wells were washed with 0.05% PBS-T buffer solution twice. Difco skim milk (BD) was dissolved in 0.05% PBS-T buffer solution at a concentration of 2%, and 200 μl thereof was added to each well, followed by incubation at room temperature for 1 hour. Then, the wells were washed with 0.05% PBS-T buffer solution twice. To the plate, 100 it of the antigen/antibody reactant that were reacted for 2 hours was added and allowed to react at room temperature for 1 hour. Then, the wells were washed with 0.05% PBS-T buffer solution three times to remove non-antigen bound antibodies. Goat anti-human IgG(Fc)-HRP (Pierce, 1/5000) that specifically recognizes the Fc region of human antibody was added as a secondary antibody, and allowed to react at room temperature for 1 hour. Then, the wells were washed with 0.05% PBS-T buffer solution four times to remove the remaining secondary antibodies. […] Then, 50 μl of 2.5 M H₂SO₄ solution was added to each well to terminate the enzymatic reaction. After terminating the reaction, absorbance was measured at 450 nm (VERSAmax microplate reader, Molecular Devices).
Affinity of the purified Ab417 antibody for human L1CAM was measured by competitive ELISA in the same manner as in Example 3-2.

[6] = molecular target: T1, mouse L1CAM (purified extracellular …); assay: Octet RED (called SPR in the filing), antibody on AHC sensor, soluble mouse L1CAM
Experimental: as §3

[7] = molecular target: T2, human L1CAM (purified extracellular …); assay: Octet RED
Experimental: as §3

[8] = molecular target: T2, human L1CAM (purified extracellular …); assay: not stated there (summary of the filing's affinity measurements); rounded summary value, no assay named
[9] = molecular target: T2, human L1CAM (purified extracellular …); assay: competitive ELISA (soluble human L1CAM against coated human L1CAM)
Experimental: as §4, §5

[10] = molecular target: T2, human L1CAM (purified extracellular …); assay: Octet RED, antibody on AHC sensor, soluble human L1CAM
Experimental: as §1, §2

T2 sequence (P32004 20-1112 limits assumed, form in doubt): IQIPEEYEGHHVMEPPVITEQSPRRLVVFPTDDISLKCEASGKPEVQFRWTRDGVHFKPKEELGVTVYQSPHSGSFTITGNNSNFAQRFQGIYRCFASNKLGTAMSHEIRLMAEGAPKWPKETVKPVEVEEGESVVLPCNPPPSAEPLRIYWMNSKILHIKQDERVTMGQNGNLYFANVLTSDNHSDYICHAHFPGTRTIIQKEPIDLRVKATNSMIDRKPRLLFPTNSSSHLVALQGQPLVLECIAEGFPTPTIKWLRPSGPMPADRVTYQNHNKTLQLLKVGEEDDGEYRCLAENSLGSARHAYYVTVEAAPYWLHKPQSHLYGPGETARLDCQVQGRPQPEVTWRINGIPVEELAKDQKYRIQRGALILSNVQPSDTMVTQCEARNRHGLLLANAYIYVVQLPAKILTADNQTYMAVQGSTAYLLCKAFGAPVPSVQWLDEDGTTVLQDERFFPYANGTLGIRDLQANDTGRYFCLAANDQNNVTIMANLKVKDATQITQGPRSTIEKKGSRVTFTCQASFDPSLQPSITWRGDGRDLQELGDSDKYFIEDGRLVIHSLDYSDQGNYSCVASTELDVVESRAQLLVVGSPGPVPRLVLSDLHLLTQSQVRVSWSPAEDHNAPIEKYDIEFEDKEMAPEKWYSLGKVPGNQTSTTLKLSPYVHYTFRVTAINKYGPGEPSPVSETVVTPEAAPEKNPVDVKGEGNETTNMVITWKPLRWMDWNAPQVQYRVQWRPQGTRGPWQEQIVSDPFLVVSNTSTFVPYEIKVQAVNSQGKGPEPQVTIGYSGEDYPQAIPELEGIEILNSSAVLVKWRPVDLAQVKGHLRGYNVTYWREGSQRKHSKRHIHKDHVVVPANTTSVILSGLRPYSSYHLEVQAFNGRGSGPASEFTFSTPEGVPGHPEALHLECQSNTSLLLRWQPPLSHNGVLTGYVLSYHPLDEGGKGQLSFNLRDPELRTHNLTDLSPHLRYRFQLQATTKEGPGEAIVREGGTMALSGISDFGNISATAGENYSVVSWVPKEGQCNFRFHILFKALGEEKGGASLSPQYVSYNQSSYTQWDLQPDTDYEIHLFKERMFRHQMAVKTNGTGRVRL
T1 sequence (P11627 20-1123): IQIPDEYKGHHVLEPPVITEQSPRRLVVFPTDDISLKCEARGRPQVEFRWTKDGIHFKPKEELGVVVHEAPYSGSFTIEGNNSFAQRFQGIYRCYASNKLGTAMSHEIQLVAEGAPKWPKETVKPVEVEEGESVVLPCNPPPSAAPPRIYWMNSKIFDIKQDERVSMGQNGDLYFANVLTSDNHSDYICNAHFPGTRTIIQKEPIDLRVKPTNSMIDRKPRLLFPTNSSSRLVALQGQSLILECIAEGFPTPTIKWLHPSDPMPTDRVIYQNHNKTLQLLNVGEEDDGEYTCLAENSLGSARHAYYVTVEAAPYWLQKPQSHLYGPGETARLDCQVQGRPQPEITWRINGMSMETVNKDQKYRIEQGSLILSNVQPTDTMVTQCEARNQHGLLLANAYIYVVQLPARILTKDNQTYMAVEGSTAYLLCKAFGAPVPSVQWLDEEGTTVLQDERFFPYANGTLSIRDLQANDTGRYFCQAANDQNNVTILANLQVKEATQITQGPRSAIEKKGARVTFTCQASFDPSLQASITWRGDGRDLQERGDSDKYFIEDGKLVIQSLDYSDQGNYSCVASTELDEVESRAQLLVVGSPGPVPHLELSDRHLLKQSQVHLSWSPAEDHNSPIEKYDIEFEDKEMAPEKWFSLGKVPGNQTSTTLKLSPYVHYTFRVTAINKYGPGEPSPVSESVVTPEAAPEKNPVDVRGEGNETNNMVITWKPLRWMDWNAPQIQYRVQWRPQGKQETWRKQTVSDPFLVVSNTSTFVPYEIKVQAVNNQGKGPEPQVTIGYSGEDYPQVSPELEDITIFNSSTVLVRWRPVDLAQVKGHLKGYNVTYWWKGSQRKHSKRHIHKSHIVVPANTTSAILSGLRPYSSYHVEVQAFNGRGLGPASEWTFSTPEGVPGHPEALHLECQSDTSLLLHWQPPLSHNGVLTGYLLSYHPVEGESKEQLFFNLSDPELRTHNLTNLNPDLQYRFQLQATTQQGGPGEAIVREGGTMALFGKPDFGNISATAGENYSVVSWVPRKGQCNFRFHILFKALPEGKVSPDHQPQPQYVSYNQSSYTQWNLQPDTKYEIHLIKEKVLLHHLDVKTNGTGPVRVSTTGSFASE

B1: Ab417 antibody (antibody, V domains shown)
VH: EVQLVESGGGVVQPGRSLRLSCAASGFTFSRFGMHWVRQAPGKGLEWVAFISNDGSNKYYADSVKGRFTISRDNSKNTLYLQMNSLRPEDTAVYYCARGRAYGSGSLFDPWGQGTLVTVSS
VL: DIQLTQSPSSLSASVGDRVTITCRASRTISIYVNWYRQRPGKAPESLIYAASNLHSGVPSRFSGSGSGTDFTLTISSLQPEDFATYYCQQSIGRGVVTFGQGTKLEIK
notes: Whole IgG expressed from pdCMV-dhfrC-Ab417; also called IgG form of Ab4M-18 (codon-optimised)
With B1 the Kd [1] was 0.1 nM, the Kd [2] was 0.21 nM and the “fold higher affinity than Ab4” value [2] was roughly 8 fold. For the same binder, the Kd [3] was 0.108 nM, the koff [3] was 2.64e-05 s⁻¹ and the kon [3] was 244000 M⁻¹ s⁻¹. It also gave a Kd [4] of 0.18 nM, a koff [4] of 2.33e-05 s⁻¹ and a kon [4] of 127000 M⁻¹ s⁻¹. For the same binder, the “fold higher affinity than Ab4” value [5] was roughly 92 fold, the “fold higher affinity than Ab4M” value [5] was roughly 2.4 fold and the Kd [6] was 0.0348 nM. For the same binder, the koff [6] was 8.1e-06 s⁻¹, the kon [6] was 233000 M⁻¹ s⁻¹ and the “fold higher affinity than Ab4M” value [7] was roughly 2 fold. It also gave a Kd [8] of 0.2 nM, a Kd [9] of 1.2 nM and a Kd [10] of 0.239 nM. For the same binder, the koff [10] was 4.51e-05 s⁻¹ and the kon [10] was 189000 M⁻¹ s⁻¹.
